Measured values taken from the supplement of paper PMC11246515.
± gives the standard deviation of the averaged measurements.

Assay: total protein half-life in vivo (active degradation + dilution); higher = more stable protein
[1] = E. coli NCM3722 delta-clpP delta-lon delta-hslV, growth: N-lim chemostat, doubling time 6 h
[2] = E. coli NCM3722 delta-clpP, growth: N-lim chemostat, doubling time 6 h
[3] = E. coli NCM3722 delta-hslV, growth: N-lim chemostat, doubling time 6 h
[4] = E. coli NCM3722 delta-lon, growth: N-lim chemostat, doubling time 6 h
[5] = E. coli NCM3722 delta-smpB, growth: N-lim chemostat, doubling time 6 h
[6] = wild type E. coli NCM3722, growth: C-lim chemostat, doubling time 3 h
[7] = wild type E. coli NCM3722, growth: C-lim chemostat, doubling time 6 h
[8] = wild type E. coli NCM3722, growth: C-lim chemostat, doubling time 12 h
[9] = wild type E. coli NCM3722, growth: N-lim chemostat, doubling time 6 h
[10] = wild type E. coli NCM3722, growth: N-lim chemostat, doubling time 12 h
[11] = wild type E. coli NCM3722, growth: P-lim chemostat, doubling time 6 h
[12] = wild type E. coli NCM3722, growth: P-lim chemostat, doubling time 12 h

Sequence	total protein half-life in vivo [1] [h]	total protein half-life in vivo [2] [h]	total protein half-life in vivo [3] [h]	total protein half-life in vivo [4] [h]	total protein half-life in vivo [5] [h]	total protein half-life in vivo [6] [h]	total protein half-life in vivo [7] [h]	total protein half-life in vivo [8] [h]	total protein half-life in vivo [9] [h]	total protein half-life in vivo [10] [h]	total protein half-life in vivo [11] [h]	total protein half-life in vivo [12] [h]
MKCPVCHQGEMVSGIKDIPYTFRGRKTVLKGIHGLYCVHCEESIMNKEESDAFMAQVKAFRASVNAETVAPEFIVKVRKKLSLTQKEASEIFGGGVNAFSRYEKGNAQPHPSTIKLLRVLDKHPELLNEIR	4.78 ± 0.28	1.229 ± 0.0039	1.01	3.01 ± 0.085	0.847 ± 0.046	0.559 ± 0.062	1.07 ± 0.12	1.23	0.993	1.08	1.13	1.6 ± 0.84
MKCSWREGNKIQLLENGEQYYPAVFKAIGEAQERIILETFIWFEDDVGKQLHAALLAAAQRGVKAEVLLDGYGSPDLSDEFVNELTAAGVVFRYYDPRPRLFGMRTNVFRRMHRKIVVIDARIAFIGGLNYSAEHMSSYGPEAKQDYAVRLEGPIVEDILQFELENLPGQSAARRWWRRHHKAEENRQPGEAQVLLVWRDNEEHRDDIERHYLKMLTQARREVIIANAYFFPGYRFLHALRKAARRGVRIKLIIQGEPDMPIVRVGARLLYNYLVKGGVQVFEYRRRPLHGKVALMDDHWATVGSSNLDPLSLSLNLEANVIIHDRHFNQTLRDNLNGIIAADCQQVDETMLPKRTWWNLTKSVLAFHFLRHFPALVGWLPAHTPRLAQVDPPAQPTMETQDRVETENTGVKP [P0AA84]	5.09 ± 0.17	4.47 ± 0.2	3.731 ± 0.026	4.02 ± 0.65	3.99 ± 0.16	2.78 ± 0.092	5.37 ± 2.1	5.9 ± 1.9	3.75 ± 0.25	6.19 ± 0.53	5.17 ± 1.5	9.94 ± 4.7
MKDKVYKRPVSILVVIYAQDTKRVLMLQRRDDPDFWQSVTGSVEEGETAPQAAMREVKEEVTIDVVAEQLTLIDCQRTVEFEIFSHLRHRYAPGVTRNTESWFCLALPHERQIVFTEHLAYKWLDAPAAAALTKSWSNRQAIEQFVINAA [P0AFC0]	3.93	> 8		3.07	2.07		> 8	4.68 ± 0.41	2.22 ± 0.26	3.45	2.75 ± 0.2	
MKEKTIIIVGGGQAAAMAAASLRQQGFTGELHLFSDERHLPYERPPLSKSMLLEDSPQLQQVLPANWWQENNVHLHSGVTIKTLGRDTRELVLTNGESWHWDQLFIATGAAARPLPLLDALGERCFTLRHAGDAARLREVLQPERSVVIIGAGTIGLELAASATQRRCKVTVIELAATVMGRNAPPPVQRYLLQRHQQAGVRILLNNAIEHVVDGEKVELTLQSGETLQADVVIYGIGISANEQLAREANLDTANGIVIDEACRTCDPAIFAGGDVAITRLDNGALHRCESWENANNQAQIAAAAMLGLPLPLLPPPWFWSDQYSDNLQFIGDMRGDDWLCRGNPETQKAIWFNLQNGVLIGAVTLNQGREIRPIRKWIQSGKTFDAKLLIDENIALKSL	5.74 ± 1.6	1.04				3.07	2.51 ± 0.54	2.78 ± 0.14		1.3	1.03	2.31 ± 0.41
MKFDKPAGENPIDQLKVVGRPHDRIDGPLKTTGTARYAYEWHEEAPNAAYGYIVGSAIAKGRLTALDTDAAQKAPGVLAVITASNAGALGKGDKNTARLLGGPTIEHYHQAIALVVAETFEQARAAASLVQAHYRRNKGAYSLADEKQAVNQPPEDTPDKNVGDFDGAFTSAAVKIDATYTTPDQSHMAMEPHASMAVWDGNKLTLWTSNQMIDWCRTDLAKTLKVPVENVRIISPYIGGGFGGKLFLRSDALLAALAARAVKRPVKVMLPRPSIPNNTTHRPATLQHLRIGADQSGKITAISHESWSGNLPGGTPETAVQQSELLYAGANRHTGLRLATLDLPEGNAMRAPGEAPGLMALEIAIDELAEKAGIDPVEFRILNDTQVDPADPTRCFSRRQLIECLRTGADKFGWKQRNATPGQVRDGEWLVGHGVAAGFRNNLLEKSGARVHLEQNGTVTVETDMTDIGTGSYTILAQTAAEMLGVPLEQVAVHLGDSSFPVSAGSGGQWGANTSTSGVYAACMKLREMIASAVGFDPEQSQFADGKITNGTRSATLHEATAGGRLTAEESIEFGTLSKEYQQSTFAGHFVEVGVHSATGEVRVRRMLAVCAAGRILNPKTARSQVIGAMTMGMGAALMEELAVDDRLGYFVNHDMAGYEVPVHADIPKQEVIFLDDTDPISSPMKAKGVGELGLCGVSAAIANAVYNATGIRVRDYPITLDKLLDKLPDVV	6.02 ± 1.7	1.06		4.29 ± 0.36			6.1					
MKFKTNKLSLNLVLASSLLAASIPAFAVTGDTDQPIHIESDQQSLDMQGNVVTFTGNVIVTQGTIKINADKVVVTRPGGEQGKEVIDGYGKPATFYQMQDNGKPVEGHASQMHYELAKDFVVLTGNAYLQQVDSNIKGDKITYLVKEQKMQAFSDKGKRVTTVLVPSQLQDKNNKGQTPAQKKGN [P0ADV1]	5.44 ± 0.34		6.38 ± 0.74	6.48 ± 1.1	6.18 ± 0.62	3.06 ± 0.23	5.6321 ± 0.0032	10.5 ± 0.36	5.73 ± 0.082	9.99 ± 1.6	5.79 ± 0.07	11.8 ± 0.99
